According to patent US20140294828A1 (COMPLIX, published 2014):

Target: HIV-1 Env of the HXB2 strain (envelope glycoprotein complex gp120/gp41) (HIV-1 (HXB2 strain), UniProt P04578 33-856)
Test: cell-based or functional assay

B1: single-chain Alphabody scAB_Env03_KC (designed binder)
chain: MGHHHHHHHHHHSSGHIEGRHMSIEEIQKPIATIQEAIAWIQKKIYMMTGGSGGGSGGGSGGGSGMSIEEIQKQIAAIQCQIAAIQKQIYAMTGGSGGGSGGGSGGGSGMSIEEIQKQIVAIMEQIVAIVKQISAMTP
modifications: Interchain disulfide between Cys80 of chain 1 and Cys80 of chain 2 (homodimer; paragraph 268, and FIG.11 prints 'scAB_Env03_KC (dimer)').
notes: also called Env03 Cys-mutant
Q: With B1 as the binder, how does the “50% inhibitory concentration (IC50), 5-day MTT infection assay, HXB2 virus on MT4-X4 cells” value read?
A: The value was 709 nM.
